Assay results from PMC5727386, “Structural and functional dissection of the DH and PH domains of oncogenic Bcr-Abl tyrosine kinase” (Nature Communications, 2017).

Experiments:
[1] = biological target: T1, biotinylated Bcr-Abl DH-PH tandem domain (Avi-tag) (UniProt P11274 487-893, biotin on the Avi-tag); experiment: flow cytometry on cells; monobody displayed on yeast surface; biotinylated target 10 nM to 1 uM in TBS with 0.1% BSA, 30 min at RT; streptavidin-DyLight650; 1:1 binding model; apparent Kd; settings: one partner purified
T1 construct: Bcr part of Bcr-Abl p210, DH-PH tandem domain, residues 487-893; Cloned in pHBT1, which for the monobodies is said to give an N-terminal His- and Avi-tag followed by a TEV site; also called biotinylated DH-PH domain; source: E. coli BL21(DE3), co-expressed with BirA and 50 uM biotin, purified; not shown: Avi-tag, N-terminal, kept
T1 sequence (looked up): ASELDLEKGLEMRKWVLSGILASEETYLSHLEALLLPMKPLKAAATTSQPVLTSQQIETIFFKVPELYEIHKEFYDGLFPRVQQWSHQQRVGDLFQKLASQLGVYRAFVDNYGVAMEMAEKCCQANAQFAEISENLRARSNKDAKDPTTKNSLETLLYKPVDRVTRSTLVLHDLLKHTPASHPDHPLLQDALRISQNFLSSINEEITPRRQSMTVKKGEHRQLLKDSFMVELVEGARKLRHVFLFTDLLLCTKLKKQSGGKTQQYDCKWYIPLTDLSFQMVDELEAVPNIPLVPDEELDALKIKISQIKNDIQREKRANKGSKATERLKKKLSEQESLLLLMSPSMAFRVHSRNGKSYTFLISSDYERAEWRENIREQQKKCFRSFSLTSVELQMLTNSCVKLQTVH

[2] = biological target: T2, Bcr-Abl DH domain (residues 487-702); experiment: ITC; monobody (200 uM stock) titrated to the DH domain (20 uM) at 25 °C; 25 mM HEPES pH 7.5, 150 mM NaCl, 0.5 mM TCEP; 1:1 binding model; settings: both partners purified
T2 construct: Bcr part of Bcr-Abl p210, Dbl-homology domain, residues 487-702; 15N-labelled for the NMR experiments; also called Bcr DH; source: E. coli Rosetta(DE3), purified (Ni-NTA, TEV cleavage, reverse Ni, SEC); not shown: His-tag, N-terminal, cleaved
T2 chain: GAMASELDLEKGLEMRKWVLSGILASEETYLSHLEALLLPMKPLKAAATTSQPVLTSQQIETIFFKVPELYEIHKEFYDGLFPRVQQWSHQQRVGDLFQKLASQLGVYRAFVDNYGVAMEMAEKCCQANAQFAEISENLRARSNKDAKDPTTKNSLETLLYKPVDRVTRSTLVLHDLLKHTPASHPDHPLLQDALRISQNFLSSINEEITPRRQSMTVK

[3] = biological target: T3, biotinylated Bcr-Abl PH domain (Avi-tag) (UniProt P11274 704-893, biotin on the Avi-tag); experiment: flow cytometry on cells; monobody displayed on yeast surface; biotinylated target 10 nM to 1 uM in TBS with 0.1% BSA, 30 min at RT; streptavidin-DyLight650; 1:1 binding model; apparent Kd; settings: one partner purified
T3 construct: Bcr part of Bcr-Abl p210, Pleckstrin-homology domain, residues 704-893; Cloned in pHBT1; the limits are those stated for the PH domain construct; also called biotinylated PH; source: E. coli BL21(DE3), co-expressed with BirA and 50 uM biotin, purified; not shown: Avi-tag, N-terminal, kept
T3 sequence (looked up): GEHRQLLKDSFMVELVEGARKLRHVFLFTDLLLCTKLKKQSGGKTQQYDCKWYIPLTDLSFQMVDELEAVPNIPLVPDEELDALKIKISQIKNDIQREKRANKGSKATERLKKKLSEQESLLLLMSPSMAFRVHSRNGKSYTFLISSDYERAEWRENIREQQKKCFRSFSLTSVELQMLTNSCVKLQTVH

Kd [1] [nM] | Kd [2] [nM] | stoichiometry N [2] | Kd [3] [nM] | Binder
18 ± 5 | – | – | – | monobody Mb(Bcr-DH_3), displayed on yeast surface (designed binder, monobody on the fibronectin type III scaffold, side-and-loop library) VSSVPTKLEVVAATPTSLLISWDAPAVTVDLYVITYGETGGNSPVQAFEVPGSKSTATISGLKPGVDYTITVYAGSETYRGYWSPISINYRT
20 ± 7 | – | – | – | monobody Mb(Bcr-DH_4), displayed on yeast surface (designed binder, monobody on the fibronectin type III scaffold, side-and-loop library) VSSVPTKLEVVAATPTSLLISWDAPAVTVDLYVITYGETGGNSPVQEFEVPGSKSTATISGLKPGVDYTITVYAGSYAYEYYWGPSPISINYRT
– | 2.1 | 0.78 | – | monobody Mb(Bcr-DH_3), purified (designed binder, monobody on the fibronectin type III scaffold, side-and-loop library; also called Mb(DH_3); source: E. coli BL21(DE3), purified; not shown: His-tag, N-terminal, cleaved; Avi-tag, N-terminal, cleaved) VSSVPTKLEVVAATPTSLLISWDAPAVTVDLYVITYGETGGNSPVQAFEVPGSKSTATISGLKPGVDYTITVYAGSETYRGYWSPISINYRT
– | 14.5 ± 8.6 | 0.94 | – | monobody Mb(Bcr-DH_4), purified (designed binder, monobody on the fibronectin type III scaffold, side-and-loop library; also called Mb(DH_4); S10; source: E. coli BL21(DE3), purified; not shown: His-tag, N-terminal, cleaved; Avi-tag, N-terminal, cleaved) VSSVPTKLEVVAATPTSLLISWDAPAVTVDLYVITYGETGGNSPVQEFEVPGSKSTATISGLKPGVDYTITVYAGSYAYEYYWGPSPISINYRT
– | – | – | 46 ± 10 | monobody Mb(Bcr-PH_2), displayed on yeast surface (designed binder, monobody on the fibronectin type III scaffold, side-and-loop library) VSSVPTKLEVVAATPTSLLISWDAPAVTVVFYVITYGETGGNSPVQEFTVPGSKSTATISGLKPGVDYTITVYAEYYGYTSSPISINYRT
– | – | – | 63 ± 12 | monobody Mb(Bcr-PH_3), displayed on yeast surface (designed binder, monobody on the fibronectin type III scaffold, side-and-loop library) VSSVPTKLEVVAATPTSLLISWDAPAVTVVFYVITYGETGGNSPVQEFTVPGSKSTATISGLKPGVDYTITVYAEYYGYSGWQSPISINYRT
